Source: patent EP2096121A1 (Institut Pasteur Of Shanghai, dated 2009)

Assays:
[1] = target: HIV-1 envelope pDOL (subtype B) (HIV-1 (subtype B)); test: cell-based or functional assay
[2] = target: HIV-1 envelope Q168 (subtype A) (HIV-1 (subtype A)); test: cell-based or functional assay

B1: GPI-scFv (TG15): scFv/hinge/his-tag/DAF, anti-HIV-1 gp41 single-chain Fv derived from human monoclonal antibody TG15, GPI-anchored (scFv)
scFv: QVQLQQWGAGLLKPSETLSLTCAVYGDSFGGHHWSWIRQPPGKGLEWIGEINFLGNTNYNPSLKSRVAISKDTSKNQFSLTLNSATAADTAVYFCARRETMETASRKRAFDIWGQGTMETVTVSAGGGGSGGGGSGGGGSAELMETTQSPPTLSASVGDRVTITCRASQSLSGWVAWYQQKPGKAPKLLIYKASTLESGVPSRFSGSGSGTVFALTISSLQPDDSATYYCQQHSAFSSTFGQGTKLEIKRTPLGDTTHTSGHHHHHHGSGTTSGTTRLLSGHTCFTLTGLLGTLVTMETGLLT
relative luciferase activity (RLA), single-cycle pseudotype infectivity, CEMss-GPI-scFv compared to CEMss-eGFP [1]: 8 fold reduction
relative luciferase activity (RLA), single-cycle pseudotype infectivity, CEMss-GPI-scFv compared to CEMss-eGFP [2]: 180 fold reduction
